± gives the uncertainty stated by the source.
Assay: self-splicing fitness, log relative to wild type (ln ratio); higher = more splicing; Tetrahymena group I intron in knt gene, E. coli kanamycin selection, DiMSum; sequences stand for … in CUCUCU…GGAGGGAAAAGUUAUCAGGCAUGCACCUGGUAGCUAGUCUUUAAACCAAUAGAUUGCAUCGGUUUAAAAGGCAAGACCGUCAAAUUGCGGGAAAGGGGUCAACAGCCGUUCAGUACCAAGUCUCAGGGGAAACUUUGAGAUGGCCUUGCAAAGGGUAUGGUAAUAAGCUGACGGACAUGGUCCUAACCACGCAGCCAAGUCCUAAGUCAACAGAUCUUCUGUUGAUAUGGAUGCAGUUCACAGACUAAAUGUCGGUCGGGGAAGAUGUAUUCUUCUCAUAAGAUAUAGUCGGACCUCUCCUUAAUGGGAGCUAGCGGAUGAAGUGAUGCAACACUGGAGCCGCUGGGAACUAAUUUGUAUGCGAAAGUAUAUUGAUUAGUUUUGGAGUACUCGUGGUCG
Method in brief: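 DiMSum derived fitness as the error-weighted combination of fold changes across replicates, kanamycin versus no kanamycin, normalised to wild type. E. coli BL21(DE3) held the library, which randomised all eight P1ex-region intron nucleotides within the knt kanamycin-resistance gene on pET-22b(+). Six replicate transformations grew overnight at 37°C or 30°C on LB agar with or without 25 μg/mL kanamycin, also containing 100 μg/mL carbenicillin, 50 μM IPTG and 0.2% rhamnose, and pooled colonies were amplicon-sequenced on an Illumina HiSeq 2500.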

With AGCCAGCAAUAUUACGAGAU the “self-splicing fitness (ln)” value (30 °C) was -3.39 ± 0.18 and the “self-splicing fitness (ln)” value (37 °C) was -2.28 ± 0.2.
For AUCGAGCAAUAUUACGGCAG, the “self-splicing fitness (ln)” value (37 °C) was -2.63 ± 0.46.
In the case of CUAUAGCAAUAUUACGGCCU, the “self-splicing fitness (ln)” value (30 °C) is reported as -2.9 ± 0.38 and the “self-splicing fitness (ln)” value (37 °C) is reported as -1.78 ± 0.38.
For GUUAAGCAAUAUUACGUUUG, the “self-splicing fitness (ln)” value (30 °C) was -2.55 ± 0.12 and the “self-splicing fitness (ln)” value (37 °C) was -1.86 ± 0.17.
With CGUUAGCAAUAUUACGAGCU the “self-splicing fitness (ln)” value (30 °C) was -1.25 ± 0.064 and the “self-splicing fitness (ln)” value (37 °C) was -0.739 ± 0.082.
With UAUAAGCAAUAUUACGCUUA the “self-splicing fitness (ln)” value (30 °C) was -1.88 ± 0.27 and the “self-splicing fitness (ln)” value (37 °C) was -0.653 ± 0.2.
With AGUGAGCAAUAUUACGUCCA the “self-splicing fitness (ln)” value (30 °C) was -2.89 ± 0.36 and the “self-splicing fitness (ln)” value (37 °C) was -1 ± 0.27.
For GGGUAGCAAUAUUACGGGCG, the “self-splicing fitness (ln)” value (30 °C) was -0.346 ± 0.098 and the “self-splicing fitness (ln)” value (37 °C) was -0.12 ± 0.13.
For UUACAGCAAUAUUACGACCU, the “self-splicing fitness (ln)” value (30 °C) was -1.38 ± 0.18 and the “self-splicing fitness (ln)” value (37 °C) was -1.25 ± 0.18.
For CGGGAGCAAUAUUACGCGUA, the “self-splicing fitness (ln)” value (30 °C) was -2.29 ± 0.29 and the “self-splicing fitness (ln)” value (37 °C) was -1.03 ± 0.24.
With AGAAAGCAAUAUUACGGACA the “self-splicing fitness (ln)” value (30 °C) was -0.632 ± 0.2 and the “self-splicing fitness (ln)” value (37 °C) was -0.869 ± 0.29.
For CGGUAGCAAUAUUACGGAGC, the “self-splicing fitness (ln)” value (30 °C) was -3.01 ± 0.33 and the “self-splicing fitness (ln)” value (37 °C) was -2.91 ± 0.34.
With GCUUAGCAAUAUUACGCCCU the “self-splicing fitness (ln)” value (30 °C) was -1.54 ± 0.11 and the “self-splicing fitness (ln)” value (37 °C) was -0.719 ± 0.13.
With GUCCAGCAAUAUUACGCUCC the “self-splicing fitness (ln)” value (30 °C) was -0.889 ± 0.17 and the “self-splicing fitness (ln)” value (37 °C) was -0.563 ± 0.2.
With CGGAAGCAAUAUUACGCGGA the “self-splicing fitness (ln)” value (30 °C) was -2.73 ± 0.28 and the “self-splicing fitness (ln)” value (37 °C) was -2.93 ± 0.43.
For AGCCAGCAAUAUUACGAACG, the “self-splicing fitness (ln)” value (30 °C) was -3.24 ± 0.27 and the “self-splicing fitness (ln)” value (37 °C) was -2.97 ± 0.37.
For CCGGAGCAAUAUUACGUUUA, the “self-splicing fitness (ln)” value (37 °C) was -1.99 ± 0.25.
For AUUGAGCAAUAUUACGCUCA, the “self-splicing fitness (ln)” value (37 °C) was -1.62 ± 0.4.
In the case of CCAGAGCAAUAUUACGACAU, the “self-splicing fitness (ln)” value (30 °C) is reported as -3.776 ± 0.029 and the “self-splicing fitness (ln)” value (37 °C) is reported as -3.03 ± 0.043.
For AGGAAGCAAUAUUACGAACG, the “self-splicing fitness (ln)” value (30 °C) was -1.19 ± 0.14 and the “self-splicing fitness (ln)” value (37 °C) was -0.0957 ± 0.18.
With CAACAGCAAUAUUACGUUUA the “self-splicing fitness (ln)” value (30 °C) was -1.62 ± 0.086 and the “self-splicing fitness (ln)” value (37 °C) was -0.887 ± 0.073.
In the case of UUGAAGCAAUAUUACGAUGU, the “self-splicing fitness (ln)” value (30 °C) is reported as -1.61 ± 0.067 and the “self-splicing fitness (ln)” value (37 °C) is reported as -0.962 ± 0.11.
For CGCAAGCAAUAUUACGACUA, the “self-splicing fitness (ln)” value (30 °C) was -1.47 ± 0.22 and the “self-splicing fitness (ln)” value (37 °C) was -0.703 ± 0.2.
In the case of UUCCAGCAAUAUUACGAGAU, the “self-splicing fitness (ln)” value (30 °C) is reported as -3.68 ± 0.43 and the “self-splicing fitness (ln)” value (37 °C) is reported as -0.948 ± 0.19.
With CUGUAGCAAUAUUACGUCUG the “self-splicing fitness (ln)” value (30 °C) was -0.298 ± 0.088 and the “self-splicing fitness (ln)” value (37 °C) was 0.128 ± 0.1.
For CCUGAGCAAUAUUACGGUGU, the “self-splicing fitness (ln)” value (30 °C) was -3.89 ± 0.24 and the “self-splicing fitness (ln)” value (37 °C) was -2.32 ± 0.14.
In the case of AUCGAGCAAUAUUACGAUAA, the “self-splicing fitness (ln)” value (30 °C) is reported as -2.7 ± 0.26 and the “self-splicing fitness (ln)” value (37 °C) is reported as -1.74 ± 0.21.
For UUGAAGCAAUAUUACGAAUA, the “self-splicing fitness (ln)” value (30 °C) was -0.868 ± 0.12 and the “self-splicing fitness (ln)” value (37 °C) was -1.13 ± 0.15.
For GCCCAGCAAUAUUACGGAUC, the “self-splicing fitness (ln)” value (30 °C) was -0.448 ± 0.044 and the “self-splicing fitness (ln)” value (37 °C) was -0.289 ± 0.056.
With AGCAAGCAAUAUUACGUGCA the “self-splicing fitness (ln)” value (30 °C) was -0.675 ± 0.058 and the “self-splicing fitness (ln)” value (37 °C) was 0.058 ± 0.077.
For AACCAGCAAUAUUACGGGAG, the “self-splicing fitness (ln)” value (30 °C) was -0.751 ± 0.036 and the “self-splicing fitness (ln)” value (37 °C) was -0.132 ± 0.051.
In the case of GCAAAGCAAUAUUACGCCUC, the “self-splicing fitness (ln)” value (30 °C) is reported as -2.69 ± 0.12 and the “self-splicing fitness (ln)” value (37 °C) is reported as -1.86 ± 0.16.
For ACGCAGCAAUAUUACGCGAC, the “self-splicing fitness (ln)” value (30 °C) was -2.01 ± 0.15 and the “self-splicing fitness (ln)” value (37 °C) was -2.24 ± 0.21.
For UAAUAGCAAUAUUACGAAGU, the “self-splicing fitness (ln)” value (37 °C) was -1.55 ± 0.47.
For UUUUAGCAAUAUUACGACUU, the “self-splicing fitness (ln)” value (30 °C) was -1.64 ± 0.32 and the “self-splicing fitness (ln)” value (37 °C) was -1.14 ± 0.33.
In the case of GCACAGCAAUAUUACGGGAU, the “self-splicing fitness (ln)” value (30 °C) is reported as -1.01 ± 0.073 and the “self-splicing fitness (ln)” value (37 °C) is reported as -1.02 ± 0.087.
In the case of UAGAAGCAAUAUUACGGGCA, the “self-splicing fitness (ln)” value (30 °C) is reported as -1.17 ± 0.16 and the “self-splicing fitness (ln)” value (37 °C) is reported as -0.144 ± 0.12.
With GUGAAGCAAUAUUACGUAAG the “self-splicing fitness (ln)” value (30 °C) was -0.979 ± 0.088 and the “self-splicing fitness (ln)” value (37 °C) was -0.0954 ± 0.13.
In the case of GGAGAGCAAUAUUACGGGGA, the “self-splicing fitness (ln)” value (30 °C) is reported as -3.31 ± 0.49.
With CCGUAGCAAUAUUACGCUCU the “self-splicing fitness (ln)” value (30 °C) was -2.65 ± 0.37 and the “self-splicing fitness (ln)” value (37 °C) was -2.48 ± 0.39.
For GAAUAGCAAUAUUACGGGGU, the “self-splicing fitness (ln)” value (30 °C) was -3.77 ± 0.21 and the “self-splicing fitness (ln)” value (37 °C) was -3.71 ± 0.21.
For AACUAGCAAUAUUACGCCAU, the “self-splicing fitness (ln)” value (30 °C) was -2.6 ± 0.15 and the “self-splicing fitness (ln)” value (37 °C) was -2.42 ± 0.18.
In the case of GUGUAGCAAUAUUACGUGUG, the “self-splicing fitness (ln)” value (30 °C) is reported as -3.21 ± 0.18 and the “self-splicing fitness (ln)” value (37 °C) is reported as -1.69 ± 0.15.
For AGUUAGCAAUAUUACGGCAU, the “self-splicing fitness (ln)” value (30 °C) was -0.297 ± 0.063 and the “self-splicing fitness (ln)” value (37 °C) was -0.161 ± 0.085.
In the case of CCGAAGCAAUAUUACGAGUG, the “self-splicing fitness (ln)” value (30 °C) is reported as -0.855 ± 0.049 and the “self-splicing fitness (ln)” value (37 °C) is reported as -0.0149 ± 0.062.
In the case of UGUAAGCAAUAUUACGCGCG, the “self-splicing fitness (ln)” value (30 °C) is reported as -0.498 ± 0.11 and the “self-splicing fitness (ln)” value (37 °C) is reported as -0.329 ± 0.15.
With AGAUAGCAAUAUUACGAUCA the “self-splicing fitness (ln)” value (30 °C) was -0.325 ± 0.089 and the “self-splicing fitness (ln)” value (37 °C) was -0.00339 ± 0.11.
In the case of AUGAAGCAAUAUUACGUGCU, the “self-splicing fitness (ln)” value (30 °C) is reported as -1.69 ± 0.12 and the “self-splicing fitness (ln)” value (37 °C) is reported as -1.39 ± 0.12.
With UCGGAGCAAUAUUACGCUAA the “self-splicing fitness (ln)” value (30 °C) was -2.18 ± 0.35.

Reference: the supplement of paper PMC7877785
